Test results published in patent US20160272683A1 (Novo Nordisk, published 2016).
Numbered stars: 1 amine (or outer) side, 2 acyl side, 3 side chain; on linkers, the order of the positions; unused ones are H or OH. * marks the point of attachment. C20 diacid = O=C(O)CCCCCCCCCCCCCCCCCCC(=O)*; C18 diacid = O=C(O)CCCCCCCCCCCCCCCCC(=O)*; C16 diacid = O=C(O)CCCCCCCCCCCCCCC(=O)*; γGlu = O=C(O)[C@H](CCC(=O)[*:2])N[*:1]; AEEA = NCCOCCOCC(=O)O

How the values were obtained:
[1] = molecular target: T1, human amylin receptor (amylin 3(a) receptor: human calcitonin receptor with RAMP-3) (human, UniProt P30988 25-474; O60896 24-148, limits assumed); assay: SPA competition vs 125I-rat amylin, membranes with human CTR + RAMP-3 (Assay V)
T1 construct: whole, on cells; Assay V: membranes of the Amylin 3(a)/CRE-luc BHK cells on SPA beads; also called hAmylin-R
T1 sequence (looked up) 1: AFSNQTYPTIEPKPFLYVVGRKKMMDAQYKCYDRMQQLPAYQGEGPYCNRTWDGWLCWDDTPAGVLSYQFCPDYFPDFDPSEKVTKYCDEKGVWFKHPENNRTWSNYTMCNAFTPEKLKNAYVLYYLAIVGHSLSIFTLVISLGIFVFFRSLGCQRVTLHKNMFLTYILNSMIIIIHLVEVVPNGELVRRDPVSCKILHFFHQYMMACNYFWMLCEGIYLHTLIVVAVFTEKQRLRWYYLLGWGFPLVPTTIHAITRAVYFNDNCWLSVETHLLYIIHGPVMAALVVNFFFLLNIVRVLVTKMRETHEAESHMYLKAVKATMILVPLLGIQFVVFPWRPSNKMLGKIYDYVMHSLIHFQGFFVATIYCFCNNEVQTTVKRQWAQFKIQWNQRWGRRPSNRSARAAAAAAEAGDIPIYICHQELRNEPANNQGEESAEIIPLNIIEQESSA
T1 sequence (looked up) 2: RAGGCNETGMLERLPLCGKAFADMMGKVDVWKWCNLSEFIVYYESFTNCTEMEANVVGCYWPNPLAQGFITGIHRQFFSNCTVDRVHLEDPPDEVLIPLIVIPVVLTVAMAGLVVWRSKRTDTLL

[2] = molecular target: T2, human calcitonin receptor (human, UniProt P30988 25-474); assay: SPA competition vs 125I-calcitonin, membranes with human CTR (Assay VII)
T2 construct: whole, on cells; Assay VII: membranes on SPA beads; also called hCT-R; hCTR
T2 sequence (looked up): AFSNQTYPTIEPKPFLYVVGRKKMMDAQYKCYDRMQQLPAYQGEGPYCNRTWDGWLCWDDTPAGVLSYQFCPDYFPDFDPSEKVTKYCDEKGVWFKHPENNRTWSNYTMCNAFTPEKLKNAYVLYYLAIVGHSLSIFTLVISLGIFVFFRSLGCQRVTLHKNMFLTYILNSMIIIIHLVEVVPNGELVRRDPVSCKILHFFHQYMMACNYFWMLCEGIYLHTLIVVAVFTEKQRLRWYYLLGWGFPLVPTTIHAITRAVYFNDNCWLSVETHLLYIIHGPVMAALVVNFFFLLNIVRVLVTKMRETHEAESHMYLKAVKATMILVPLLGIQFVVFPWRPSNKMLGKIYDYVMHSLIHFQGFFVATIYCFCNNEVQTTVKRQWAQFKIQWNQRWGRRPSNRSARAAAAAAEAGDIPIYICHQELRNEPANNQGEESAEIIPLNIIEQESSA
Method in brief: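 SPA competition on membranes from BHK tk'ts 13 cells stably expressing human calcitonin receptor plus CRE-luciferase reporter; membranes 35 ng/μL final with 0.05 mg/well beads.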

Binder | IC50 [1] [nM] | IC50 [2] [nM]
{C18 diacid-γGlu-AEEA-AEEA}-ASGLSTAVLGRLSQELHELQTYPRTETGSGTY-NH2 (SMILES CC(C)C[C@H](NC(=O)CNC(=O)[C@H](CO)NC(=O)[C@H](C)NC(=O)COCCOCCNC(=O)COCCOCCNC(=O)CC[C@H](NC(=O)CCCCCCCCCCCCCCCCC(=O)O)C(=O)O)C(=O)N[C@@H](CO)C(=O)N[C@H](C(=O)N[C@@H](C)C(=O)N[C@H](C(=O)N[C@@H](CC(C)C)C(=O)NCC(=O)N[C@@H](CCCNC(=N)N)C(=O)N[C@@H](CC(C)C)C(=O)N[C@@H](CO)C(=O)N[C@@H](CCC(N)=O)C(=O)N[C@@H](CCC(=O)O)C(=O)N[C@@H](CC(C)C)C(=O)N[C@@H](Cc1c[nH]cn1)C(=O)N[C@@H](CCC(=O)O)C(=O)N[C@@H](CC(C)C)C(=O)N[C@@H](CCC(N)=O)C(=O)N[C@H](C(=O)N[C@@H](Cc1ccc(O)cc1)C(=O)N1CCC[C@H]1C(=O)N[C@@H](CCCNC(=N)N)C(=O)N[C@H](C(=O)N[C@@H](CCC(=O)O)C(=O)N[C@H](C(=O)NCC(=O)N[C@@H](CO)C(=O)NCC(=O)N[C@H](C(=O)N[C@@H](Cc1ccc(O)cc1)C(N)=O)[C@@H](C)O)[C@@H](C)O)[C@@H](C)O)[C@@H](C)O)C(C)C)[C@@H](C)O, mimylin derivative; des1 = residue 1 deleted; also called Ex. #121; 121) [[N-terminal(C18 diacid-gGlu-2xOEG), des1, 4G, 9V, 15Q, 21Q, 23Y, 30S, 31G, 32T, 33Y]mimylin] | 0.371 | 0.12
{C16 diacid-γGlu}-ASELSTAALGRLSAELHELATLPRTETGSGSP-NH2 (mimylin derivative; des1 = residue 1 deleted; also called Ex. #47; 47) [[N-terminal(C16 diacid-gGlu), des1, 30S, 31G]mimylin] | 0.037 | 0.024
{C18 diacid-γGlu}-ASELSTAALGRLSAELHELATLPRTETGSGSP-NH2 (mimylin derivative; des1 = residue 1 deleted; also called Ex. #46; 46) [[N-terminal(C18 diacid-gGlu), des1, 30S, 31G]mimylin] | 0.516 | 0.084
{C20 diacid-γGlu-AEEA-AEEA-AEEA-AEEA-AEEA}-ASELSTAALGRLSAELHELATLPRTETGSGSP-NH2 (mimylin derivative; des1 = residue 1 deleted; also called Ex. #45; 45) [[N-terminal(C20 diacid-gGlu-5xOEG), des1, 30S, 31G]mimylin] | 0.389 | 0.112
{C20 diacid-γGlu}-ASGLSTAVLGRLSQELHELQTYPRTETGSQTY-NH2 (SMILES CC(C)C[C@H](NC(=O)CNC(=O)[C@H](CO)NC(=O)[C@H](C)NC(=O)CC[C@H](NC(=O)CCCCCCCCCCCCCCCCCCC(=O)O)C(=O)O)C(=O)N[C@@H](CO)C(=O)N[C@H](C(=O)N[C@@H](C)C(=O)N[C@H](C(=O)N[C@@H](CC(C)C)C(=O)NCC(=O)N[C@@H](CCCNC(=N)N)C(=O)N[C@@H](CC(C)C)C(=O)N[C@@H](CO)C(=O)N[C@@H](CCC(N)=O)C(=O)N[C@@H](CCC(=O)O)C(=O)N[C@@H](CC(C)C)C(=O)N[C@@H](Cc1c[nH]cn1)C(=O)N[C@@H](CCC(=O)O)C(=O)N[C@@H](CC(C)C)C(=O)N[C@@H](CCC(N)=O)C(=O)N[C@H](C(=O)N[C@@H](Cc1ccc(O)cc1)C(=O)N1CCC[C@H]1C(=O)N[C@@H](CCCNC(=N)N)C(=O)N[C@H](C(=O)N[C@@H](CCC(=O)O)C(=O)N[C@H](C(=O)NCC(=O)N[C@@H](CO)C(=O)N[C@@H](CCC(N)=O)C(=O)N[C@H](C(=O)N[C@@H](Cc1ccc(O)cc1)C(N)=O)[C@@H](C)O)[C@@H](C)O)[C@@H](C)O)[C@@H](C)O)C(C)C)[C@@H](C)O, mimylin derivative; des1 = residue 1 deleted) [[N-terminal(C20 diacid-gGlu), des1, 4G, 9V, 15Q, 21Q, 23Y, 30S, 31Q, 32T, 33Y]mimylin] | 0.152 | 0.067
{C20 diacid-γGlu}-ASGLSTAALGRLSQELHELQTYPRTETGSQTY-NH2 (SMILES CC(C)C[C@H](NC(=O)CNC(=O)[C@H](CO)NC(=O)[C@H](C)NC(=O)CC[C@H](NC(=O)CCCCCCCCCCCCCCCCCCC(=O)O)C(=O)O)C(=O)N[C@@H](CO)C(=O)N[C@H](C(=O)N[C@@H](C)C(=O)N[C@@H](C)C(=O)N[C@@H](CC(C)C)C(=O)NCC(=O)N[C@@H](CCCNC(=N)N)C(=O)N[C@@H](CC(C)C)C(=O)N[C@@H](CO)C(=O)N[C@@H](CCC(N)=O)C(=O)N[C@@H](CCC(=O)O)C(=O)N[C@@H](CC(C)C)C(=O)N[C@@H](Cc1c[nH]cn1)C(=O)N[C@@H](CCC(=O)O)C(=O)N[C@@H](CC(C)C)C(=O)N[C@@H](CCC(N)=O)C(=O)N[C@H](C(=O)N[C@@H](Cc1ccc(O)cc1)C(=O)N1CCC[C@H]1C(=O)N[C@@H](CCCNC(=N)N)C(=O)N[C@H](C(=O)N[C@@H](CCC(=O)O)C(=O)N[C@H](C(=O)NCC(=O)N[C@@H](CO)C(=O)N[C@@H](CCC(N)=O)C(=O)N[C@H](C(=O)N[C@@H](Cc1ccc(O)cc1)C(N)=O)[C@@H](C)O)[C@@H](C)O)[C@@H](C)O)[C@@H](C)O)[C@@H](C)O, mimylin derivative; des1 = residue 1 deleted) [[N-terminal(C20 diacid-gGlu), des1, 4G, 15Q, 21Q, 23Y, 30S, 31Q, 32T, 33Y]mimylin] | 0.131 | 0.051
{C20 diacid-γGlu}-ASGLSTAALGRLSQELHELQTYPHTETGSGTY-NH2 (SMILES CC(C)C[C@H](NC(=O)CNC(=O)[C@H](CO)NC(=O)[C@H](C)NC(=O)CC[C@H](NC(=O)CCCCCCCCCCCCCCCCCCC(=O)O)C(=O)O)C(=O)N[C@@H](CO)C(=O)N[C@H](C(=O)N[C@@H](C)C(=O)N[C@@H](C)C(=O)N[C@@H](CC(C)C)C(=O)NCC(=O)N[C@@H](CCCNC(=N)N)C(=O)N[C@@H](CC(C)C)C(=O)N[C@@H](CO)C(=O)N[C@@H](CCC(N)=O)C(=O)N[C@@H](CCC(=O)O)C(=O)N[C@@H](CC(C)C)C(=O)N[C@@H](Cc1c[nH]cn1)C(=O)N[C@@H](CCC(=O)O)C(=O)N[C@@H](CC(C)C)C(=O)N[C@@H](CCC(N)=O)C(=O)N[C@H](C(=O)N[C@@H](Cc1ccc(O)cc1)C(=O)N1CCC[C@H]1C(=O)N[C@@H](Cc1c[nH]cn1)C(=O)N[C@H](C(=O)N[C@@H](CCC(=O)O)C(=O)N[C@H](C(=O)NCC(=O)N[C@@H](CO)C(=O)NCC(=O)N[C@H](C(=O)N[C@@H](Cc1ccc(O)cc1)C(N)=O)[C@@H](C)O)[C@@H](C)O)[C@@H](C)O)[C@@H](C)O)[C@@H](C)O, mimylin derivative; des1 = residue 1 deleted) [[N-terminal(C20 diacid-gGlu), des1, 4G, 15Q, 21Q, 23Y, 25H, 30S, 31G, 32T, 33Y]mimylin] | 0.166 | 0.15
{C20 diacid-γGlu}-ASELSTAVLGRLSQELHELQTYPRTETGSGTY-NH2 (SMILES CC(C)C[C@H](NC(=O)[C@H](CCCNC(=N)N)NC(=O)CNC(=O)[C@H](CC(C)C)NC(=O)[C@@H](NC(=O)[C@H](C)NC(=O)[C@@H](NC(=O)[C@H](CO)NC(=O)[C@H](CC(C)C)NC(=O)[C@H](CCC(=O)O)NC(=O)[C@H](CO)NC(=O)[C@H](C)NC(=O)CC[C@H](NC(=O)CCCCCCCCCCCCCCCCCCC(=O)O)C(=O)O)[C@@H](C)O)C(C)C)C(=O)N[C@@H](CO)C(=O)N[C@@H](CCC(N)=O)C(=O)N[C@@H](CCC(=O)O)C(=O)N[C@@H](CC(C)C)C(=O)N[C@@H](Cc1c[nH]cn1)C(=O)N[C@@H](CCC(=O)O)C(=O)N[C@@H](CC(C)C)C(=O)N[C@@H](CCC(N)=O)C(=O)N[C@H](C(=O)N[C@@H](Cc1ccc(O)cc1)C(=O)N1CCC[C@H]1C(=O)N[C@@H](CCCNC(=N)N)C(=O)N[C@H](C(=O)N[C@@H](CCC(=O)O)C(=O)N[C@H](C(=O)NCC(=O)N[C@@H](CO)C(=O)NCC(=O)N[C@H](C(=O)N[C@@H](Cc1ccc(O)cc1)C(N)=O)[C@@H](C)O)[C@@H](C)O)[C@@H](C)O)[C@@H](C)O, mimylin derivative; des1 = residue 1 deleted) [[N-terminal(C20 diacid-gGlu), des1, 9V, 15Q, 21Q, 23Y, 30S, 31G, 32T, 33Y]mimylin] | 0.297 | 0.085
{C20 diacid-γGlu}-ASQLSTAVLGRLSQRLHRLQTYPRTQTGSQTY-NH2 (SMILES CC(C)C[C@H](NC(=O)[C@H](CCCNC(=N)N)NC(=O)CNC(=O)[C@H](CC(C)C)NC(=O)[C@@H](NC(=O)[C@H](C)NC(=O)[C@@H](NC(=O)[C@H](CO)NC(=O)[C@H](CC(C)C)NC(=O)[C@H](CCC(N)=O)NC(=O)[C@H](CO)NC(=O)[C@H](C)NC(=O)CC[C@H](NC(=O)CCCCCCCCCCCCCCCCCCC(=O)O)C(=O)O)[C@@H](C)O)C(C)C)C(=O)N[C@@H](CO)C(=O)N[C@@H](CCC(N)=O)C(=O)N[C@@H](CCCNC(=N)N)C(=O)N[C@@H](CC(C)C)C(=O)N[C@@H](Cc1c[nH]cn1)C(=O)N[C@@H](CCCNC(=N)N)C(=O)N[C@@H](CC(C)C)C(=O)N[C@@H](CCC(N)=O)C(=O)N[C@H](C(=O)N[C@@H](Cc1ccc(O)cc1)C(=O)N1CCC[C@H]1C(=O)N[C@@H](CCCNC(=N)N)C(=O)N[C@H](C(=O)N[C@@H](CCC(N)=O)C(=O)N[C@H](C(=O)NCC(=O)N[C@@H](CO)C(=O)N[C@@H](CCC(N)=O)C(=O)N[C@H](C(=O)N[C@@H](Cc1ccc(O)cc1)C(N)=O)[C@@H](C)O)[C@@H](C)O)[C@@H](C)O)[C@@H](C)O, mimylin derivative; des1 = residue 1 deleted; also called Ex. #132; 132) [[N-terminal(C20 diacid-gGlu), des1, 4Q, 9V, 15Q, 16R, 19R, 21Q, 23Y, 27Q, 30S, 31Q, 32T, 33Y]mimylin] | 0.39 | 0.131
{C20 diacid-γGlu-AEEA-AEEA-AEEA}-ASELSTAALGRLSAELHELATLPRTETGSGSP-NH2 (mimylin derivative; des1 = residue 1 deleted; also called Ex. #43; 43) [[N-terminal(C20 diacid-gGlu-3xOEG), des1, 30S, 31G]mimylin] | 0.164 | 0.05
{C20 diacid-γGlu-AEEA-AEEA}-ASELSTAALGRLSAELHELATLPRTETGSGSP-NH2 (mimylin derivative; des1 = residue 1 deleted; also called Ex. #42; 42) [[N-terminal(C20 diacid-gGlu-2xOEG), des1, 30S, 31G]mimylin] | 0.159 | 0.05
